This series has as its target T1, phospho-BAD (recombinant BAD as GST-fusion protein, phosphorylated in vitro with PKA and [gamma-32P]ATP), Q61337.
T1 chain: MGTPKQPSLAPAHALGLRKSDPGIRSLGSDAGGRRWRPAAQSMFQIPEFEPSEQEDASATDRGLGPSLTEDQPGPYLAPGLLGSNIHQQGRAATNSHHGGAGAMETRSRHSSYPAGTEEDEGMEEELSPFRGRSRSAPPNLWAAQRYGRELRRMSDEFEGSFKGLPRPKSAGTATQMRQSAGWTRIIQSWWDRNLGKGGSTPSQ

B1: PP2Cβ from bovine brain (protein phosphatase type 2C beta), recombinant, expressed in E. coli (protein)
chain: MGAFLDKPKTEKHNAHGAGNGLRYGLSSMQGWRVEMEDAHTAVVGIPHGLEDWSFFAVYDGHAGSRVANYCSTHLLEHITNNEDFRAAGKSGSALEPSVENVKNGIRTGFLKIDEYMRNFSDLRNGMDRSGSTAVGVMISPKHIYFINCGDSRAVLYRSGQVCFSTQDHKPCNPREKERIQNAGGSVMIQRVNGSLAVSRALGDYDYKCVDGKGPTEQLVSPEPEVYEILRAEEDEFIILACDGIWDVMSNEELCEFVKSRLEVSDDLENVCNWVVDTCLHKGSRDNMSIVLVCFSNAPKVSDEAMRKDSELDKYLESRVEEIMEKSGEEGMPDLAHVMRILSAENIPNLPPGGGLAGKRHVIEAVYSRLNPHRESDGGAGDLEDPW
With B1, the “dephosphorylation of [32P]BAD by PP2C in vitro (SDS-PAGE, autoradiography)” value was “The dephosphorylation of phospho-BAD by PP2C is dependent as well on time and concentration”; the “dephosphorylation of phospho-BAD sites by PP2C” value was “Here it could be shown, that PP2C preferably dephosphorylates P-ser^155 compared to P-ser^112 and P-ser^136”.

The values above are taken from patent US20040086495.
